Here are results for ten sequences from patent US6762290.

In data set [1] the target is VEGFR2 (KDR) extracellular domain/Fc (Homo sapiens) (UniProt P35968). Put plainly: filter. To be noted: 2'-F pyrimidines.
Data set [2] deals with VEGFR1 (Flt-1) extracellular domain/Fc (UniProt P17948). Put plainly: filter. To be noted: 2'-F pyrimidines; HBSMC, 37 C.
For data set [3], the target named is VEGF receptors on HUVEC (VEGFR2/KDR) (Homo sapiens) (UniProt P35968). Briefly: competition. To be noted: 2'-F pyrimidines; inhibition of 125I-VEGF-165 binding to HUVEC.
Chain of VEGF receptors on HUVEC (VEGFR2/KDR) (Homo sapiens) (P35968 20-1356): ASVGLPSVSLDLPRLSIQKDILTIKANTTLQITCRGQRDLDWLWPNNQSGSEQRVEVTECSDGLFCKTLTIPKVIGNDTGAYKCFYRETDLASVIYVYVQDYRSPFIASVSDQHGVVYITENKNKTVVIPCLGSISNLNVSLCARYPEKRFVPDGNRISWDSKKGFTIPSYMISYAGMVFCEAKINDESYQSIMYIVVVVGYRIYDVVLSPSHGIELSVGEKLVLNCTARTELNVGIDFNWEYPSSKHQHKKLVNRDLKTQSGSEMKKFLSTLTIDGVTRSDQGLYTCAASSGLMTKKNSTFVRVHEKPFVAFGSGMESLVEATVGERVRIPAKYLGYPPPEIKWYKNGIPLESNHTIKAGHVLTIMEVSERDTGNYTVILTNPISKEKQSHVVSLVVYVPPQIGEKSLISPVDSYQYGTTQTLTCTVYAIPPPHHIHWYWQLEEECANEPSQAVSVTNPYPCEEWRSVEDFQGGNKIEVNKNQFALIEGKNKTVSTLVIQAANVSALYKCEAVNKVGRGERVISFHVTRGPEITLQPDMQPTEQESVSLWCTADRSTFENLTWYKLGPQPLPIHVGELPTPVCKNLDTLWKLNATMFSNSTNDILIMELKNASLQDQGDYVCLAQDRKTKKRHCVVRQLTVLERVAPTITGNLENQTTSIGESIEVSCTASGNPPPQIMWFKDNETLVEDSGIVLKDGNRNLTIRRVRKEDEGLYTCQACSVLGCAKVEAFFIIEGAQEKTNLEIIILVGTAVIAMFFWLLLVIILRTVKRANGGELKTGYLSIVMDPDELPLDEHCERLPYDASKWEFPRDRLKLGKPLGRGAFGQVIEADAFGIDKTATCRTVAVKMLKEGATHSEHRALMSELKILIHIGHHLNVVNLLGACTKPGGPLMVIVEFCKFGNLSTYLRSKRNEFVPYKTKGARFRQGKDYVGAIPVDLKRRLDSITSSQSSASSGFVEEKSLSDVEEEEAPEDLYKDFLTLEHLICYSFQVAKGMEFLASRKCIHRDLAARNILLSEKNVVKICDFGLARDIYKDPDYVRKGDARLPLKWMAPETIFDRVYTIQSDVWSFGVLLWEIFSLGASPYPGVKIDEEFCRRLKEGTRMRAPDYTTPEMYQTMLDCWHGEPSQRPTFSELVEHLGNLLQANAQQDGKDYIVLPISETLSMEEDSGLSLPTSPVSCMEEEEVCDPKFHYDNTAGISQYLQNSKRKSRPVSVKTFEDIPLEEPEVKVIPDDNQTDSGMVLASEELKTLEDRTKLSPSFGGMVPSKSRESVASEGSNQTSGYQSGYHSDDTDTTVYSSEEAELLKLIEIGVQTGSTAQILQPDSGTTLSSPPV
The target of data set [4] is c-Met/Fc (UniProt P08581). Briefly: filter. The following applies: 2'-F pyrimidines.
Chain of c-Met/Fc (P08581 25-932): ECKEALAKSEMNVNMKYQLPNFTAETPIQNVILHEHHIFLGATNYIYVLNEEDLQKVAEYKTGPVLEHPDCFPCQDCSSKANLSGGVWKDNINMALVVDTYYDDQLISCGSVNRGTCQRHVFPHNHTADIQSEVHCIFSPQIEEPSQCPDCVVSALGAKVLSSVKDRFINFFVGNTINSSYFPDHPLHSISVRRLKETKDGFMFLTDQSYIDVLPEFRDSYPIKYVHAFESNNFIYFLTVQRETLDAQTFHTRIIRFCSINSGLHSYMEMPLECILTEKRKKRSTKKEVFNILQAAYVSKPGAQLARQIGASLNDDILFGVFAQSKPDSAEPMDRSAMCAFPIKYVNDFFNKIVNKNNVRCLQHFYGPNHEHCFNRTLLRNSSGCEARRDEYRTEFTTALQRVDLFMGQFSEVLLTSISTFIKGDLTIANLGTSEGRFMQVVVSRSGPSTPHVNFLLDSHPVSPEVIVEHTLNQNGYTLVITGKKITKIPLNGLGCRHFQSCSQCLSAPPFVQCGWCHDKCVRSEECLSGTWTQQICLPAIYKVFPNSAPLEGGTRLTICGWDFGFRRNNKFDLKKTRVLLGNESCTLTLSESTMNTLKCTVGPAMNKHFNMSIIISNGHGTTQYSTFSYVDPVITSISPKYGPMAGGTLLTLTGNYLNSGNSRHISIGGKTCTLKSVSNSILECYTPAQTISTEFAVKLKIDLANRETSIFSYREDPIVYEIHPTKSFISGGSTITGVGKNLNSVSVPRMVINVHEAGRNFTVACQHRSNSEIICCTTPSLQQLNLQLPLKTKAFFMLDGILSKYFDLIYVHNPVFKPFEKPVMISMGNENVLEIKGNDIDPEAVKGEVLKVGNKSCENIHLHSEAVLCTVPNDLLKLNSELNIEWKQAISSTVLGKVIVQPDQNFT

Chain of VEGFR2 (KDR) extracellular domain/Fc (Homo sapiens) (P35968 20-764): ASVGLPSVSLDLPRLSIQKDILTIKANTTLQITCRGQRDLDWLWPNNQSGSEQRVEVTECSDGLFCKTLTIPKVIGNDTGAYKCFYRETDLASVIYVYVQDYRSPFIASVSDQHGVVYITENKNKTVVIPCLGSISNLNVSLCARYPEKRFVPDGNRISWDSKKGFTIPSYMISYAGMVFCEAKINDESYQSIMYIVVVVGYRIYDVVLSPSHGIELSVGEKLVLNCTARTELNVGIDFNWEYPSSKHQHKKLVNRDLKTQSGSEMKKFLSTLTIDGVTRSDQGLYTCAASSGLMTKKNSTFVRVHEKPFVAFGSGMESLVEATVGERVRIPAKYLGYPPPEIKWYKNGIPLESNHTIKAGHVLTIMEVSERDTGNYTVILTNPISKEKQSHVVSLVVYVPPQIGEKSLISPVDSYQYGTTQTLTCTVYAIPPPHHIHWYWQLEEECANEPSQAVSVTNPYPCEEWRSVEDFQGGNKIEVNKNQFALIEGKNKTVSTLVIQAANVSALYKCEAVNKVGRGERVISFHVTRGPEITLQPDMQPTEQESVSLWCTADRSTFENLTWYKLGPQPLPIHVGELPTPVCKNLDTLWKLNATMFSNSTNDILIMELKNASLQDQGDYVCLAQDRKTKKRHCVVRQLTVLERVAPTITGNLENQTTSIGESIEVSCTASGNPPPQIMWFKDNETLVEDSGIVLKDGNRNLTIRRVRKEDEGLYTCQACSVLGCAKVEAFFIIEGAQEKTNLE
Chain of VEGFR1 (Flt-1) extracellular domain/Fc (P17948 27-758): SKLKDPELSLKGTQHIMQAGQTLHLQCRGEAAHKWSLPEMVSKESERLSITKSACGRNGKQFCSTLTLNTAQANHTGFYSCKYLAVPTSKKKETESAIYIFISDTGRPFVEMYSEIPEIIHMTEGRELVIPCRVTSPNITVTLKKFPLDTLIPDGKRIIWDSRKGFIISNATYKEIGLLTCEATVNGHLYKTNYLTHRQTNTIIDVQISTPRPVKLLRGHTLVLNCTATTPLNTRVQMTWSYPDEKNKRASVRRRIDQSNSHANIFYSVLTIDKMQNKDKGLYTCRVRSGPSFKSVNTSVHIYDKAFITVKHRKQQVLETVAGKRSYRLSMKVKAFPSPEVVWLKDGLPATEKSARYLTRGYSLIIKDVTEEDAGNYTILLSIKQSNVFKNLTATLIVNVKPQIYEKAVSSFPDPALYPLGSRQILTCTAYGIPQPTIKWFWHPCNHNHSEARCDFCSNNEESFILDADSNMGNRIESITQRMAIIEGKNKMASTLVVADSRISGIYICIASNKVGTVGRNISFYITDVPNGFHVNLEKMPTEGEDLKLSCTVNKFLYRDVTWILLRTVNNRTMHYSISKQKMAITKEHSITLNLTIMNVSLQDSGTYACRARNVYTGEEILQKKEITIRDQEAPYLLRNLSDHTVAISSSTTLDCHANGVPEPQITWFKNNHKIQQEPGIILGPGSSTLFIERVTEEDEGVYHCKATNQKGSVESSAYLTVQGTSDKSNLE

In the case of “GGGAGGACGAUGCGGAGCACUUGACCCACNACCAGAAAGCCAGCCCAGACGACUCGCCCGA [K6]”, the Kd (usually the equilibrium constant for the complex coming apart) in data set [1] (30N clone) was determined as 0.98 nM.
As to “GGGAGGACGAUGCGGNNNNNNNNNNNNNNNNNNNNNNNNNNNNNNNNNNNNNNNNCAGACGACUCGCCCGA [Flt-1 SELEX round 5 pool]”, in data set [2], the Kd stood at 0.093 nM.
In data set [1] (HBSMC, 37 C), “GGGAGGACGAUGCGGNNNNNNNNNNNNNNNNNNNNNNNNNNNNNNNNNNNNNNNNCAGACGACUCGCCCGA [KDR SELEX round 2 pool]” displayed a Kd of 0.68 nM.
For “GGGAGGACGAUGCGGNNNNNNNNNNNNNNNNNNNNNNNNNNNNNNNNNNNNNNNNCAGACGACUCGCCCGA [KDR SELEX round 3 pool]”, the Kd in data set [1] (HBSMC, 37 C) was 0.8 nM.
“GGGAGGACGAUGCGGNNNNNNNNNNNNNNNNNNNNNNNNNNNNNNNNNNNNNNNNCAGACGACUCGCCCGA [KDR SELEX round 6 pool]” showed a Kd in data set [1] (HBSMC (Mg, Ca), 37 C) of 0.44 nM.
As for “GGGAGGACGAUGCGGACANAUAACACAGGGCCUGCUUGGAUCACACUGAUUGCGCCCAGACGACUCGCCCGA [K17]”, the IC50 (as a rule, the concentration needed to halve the response being measured) in data set [3] stood at 163 nM. In addition, the equilibrium dissociation constant (Kd) in data set [1] came out at 0.24 nM.
Regarding “GGGAGGACGAUGCGGNNNNNNNNNNNNNNNNNNNNNNNNNNNNNNNNNNNNNNNNCAGACGACUCGCCCGA [KDR SELEX round 5 pool]”, the Kd in data set [4] (specificity control for Fc binding) is 74 nM; in data set [1] (HBSMC, 37 C) it was 0.83 nM; in data set [1] (comparison with cMet/Fc), 0.76 nM.
In data set [1] (circularly permuted family member), “GGGAGGACGAUGCGGAUCAUACCGGGUCAUAACACCGNUCACGGGGCCUUNUCGUCAGACGACUCGCCCGA [K24]” had a Kd of 0.97 nM.
In turn, “GGGAGGACGAUGCGGNNNNNNNNNNNNNNNNNNNNNNNNNNNNNNNNNNNNNNNNCAGACGACUCGCCCGA [KDR SELEX round 4 pool]” came in with a Kd in data set [1] (HBSMC, 37 C) of 0.581 nM.
For “GGGAGGACGAUGCGGNNNNNNNNNNNNNNNNNNNNNNNNNNNNNNNNNNNNNNNNCAGACGACUCGCCCGA [40N7 starting random library (round 0)]”, the Kd amounted to 58 nM in data set [4] (specificity control); 0.2 nM in data set [2]; 36 nM in data set [1] (HBSMC, 37 C); 361 nM in data set [1] (as printed, differs from 36 ± 3 nM in Table 1 legend).
